Data: patent US5817516, “Methods for proliferating and differentiating B cells with high density membrane CD40 ligand” (Boehringer Ingelheim Pharmaceuticals, Inc., dated 1998)

Molecular target: CD40 on human B cells (human, UniProt P25942)
Assay: cell-based or functional assay

B1: high density, membrane bound mouse CD40 ligand (ligand)
chain: MIETYSQPSPRSVATGLPASMKIFMYLLTVFLITQMIGSVLFAVYLHRRLDKVEEEVNLHEDFVFIKKLKRCNKGEGSLSLLNCEEMRRQFEDLVKDITLNKEEKKENSFEMQRGDEDPQIAAHVVSEANSNAASVLQWAKKGYYTMKSNLVMLENGKQLTVKREGLYYVYTQVTFCSNREPSSQRPFIVGLWLKPSSGSERILLKAANTHSSSQLCEQQSVHLGGVFELQAGASVFVNVTEASQVIHRVGFSSFGLLKL
expansion of human B cells grown with hdmb CD40 ligand as described for the mouse cells: ~100 fold
